What was measured:
[1] = target: the molecule itself; assay: SEC-MALS
[2] = target: the molecule itself; assay: mass photometry
[3] = target: the molecule itself; assay: MST
[4] = target: Cra (Escherichia coli, UniProt P0ACP1 1-334); assay: EMSA
[5] = target: PdeL;Cra (Escherichia coli;Escherichia coli, UniProt P21514;P0ACP1 1-362;1-334, |); assay: EMSA
Chain of PdeL;Cra (P0ACP1 whole entry, chain 2 of 2, one chain of several): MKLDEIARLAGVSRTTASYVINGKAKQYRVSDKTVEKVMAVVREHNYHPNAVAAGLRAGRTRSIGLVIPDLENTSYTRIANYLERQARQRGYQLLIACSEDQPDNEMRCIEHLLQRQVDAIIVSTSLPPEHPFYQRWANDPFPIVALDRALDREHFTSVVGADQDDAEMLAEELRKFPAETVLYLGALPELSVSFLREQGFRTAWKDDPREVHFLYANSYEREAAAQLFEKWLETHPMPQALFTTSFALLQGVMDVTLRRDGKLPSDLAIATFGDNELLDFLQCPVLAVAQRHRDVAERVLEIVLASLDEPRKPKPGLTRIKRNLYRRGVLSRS

Chain of Cra (P0ACP1 whole entry): as the sequence (P0ACP1 whole entry, chain 2 of 2, one chain of several) above

Binder	stoichiometry N [1]	stoichiometry N [2]	Kd [3] [nM]	Kd [4] [nM]	Kd [5] [nM]
PdeL L168R, tetramerization-deficient variant (enzyme, E. coli) NSCDFRVFLQEFGTTVHLSLPGSVSEKERLLLKLLMQGMSVTEISQYRNRSAKTISHQKKQLFEKLGIQSDITFWRDIFFQYNPEIISATGSNSHRYINDNHYHHIVTPEAISLALENHEFKPWIQPVFCAQTGVLTGCEVLVRWEHPQTGIIPPDQFIPLAESSGRIVIMTRQLMKQTADILMPVKHLLPDNFHIGINVSAGCFLAAGFEKECLNLVNKLGNDKIKLVLELTERNPIPVTPEARAIFDSLHQHNITFALDDFGTGYATYRYLQAFPVDFIKIDKSFVQMASVDEISGHIVDNIVELARKPGLSIVAEGVETQEQADLMIGKGVHFLQGYLYSPPVPGNKFISEWVMKAGG	2				
PdeL, full-length c-di-GMP phosphodiesterase and transcription factor of E. coli (enzyme, UniProt P21514 1-362, looked up) MNSCDFRVFLQEFGTTVHLSLPGSVSEKERLLLKLLMQGMSVTEISQYRNRSAKTISHQKKQLFEKLGIQSDITFWRDIFFQYNPEIISATGSNSHRYINDNHYHHIVTPEAISLALENHEFKPWIQPVFCAQTGVLTGCEVLVRWEHPQTGIIPPDQFIPLAESSGLIVIMTRQLMKQTADILMPVKHLLPDNFHIGINVSAGCFLAAGFEKECLNLVNKLGNDKIKLVLELTERNPIPVTPEARAIFDSLHQHNITFALDDFGTGYATYRYLQAFPVDFIKIDKSFVQMASVDEISGHIVDNIVELARKPGLSIVAEGVETQEQADLMIGKGVHFLQGYLYSPPVPGNKFISEWVMKAGG	4	2	9000		
CB CDB oligo (4695/4696) (dsDNA) DNA 1: TGCTGAATGGATTCAGTCTTAATGAGTGGG DNA 2: CCCACTCATTAAGACTGAATCCATTCAGCA				49	76
